Consider three molecules from US20040005669A1 (CREATIVE PEPTIDES SWEDEN, published 2004).

In experiment [1] the target is rabbit anti-human C-peptide antiserum. Briefly: competitive radioimmunoassay against labelled C-peptide tracer; expected concentration 3.31 nM.
For experiment [2], the target named is T1, human serum albumin (HSA), immobilised on Sepharose (human, UniProt P02768 25-609).
T1 construct: also called HSA-Sepharose; human-serum-albumin (HSA)-Sepharose
Briefly: affinity chromatography on HSA-Sepharose. How it is done:
E. coli cells harbouring pTrpBB-C3 and pTrpBB-C7, and thus encoding the fusion proteins BB-C3 and BB-C7, respectively, were grown overnight at 37° C. in shake-flasks containing 10 ml Tryptic Soy Broth (Difco, USA) (30 g/l) supplemented with yeast extract (Difco) (5 g/l) and kanamycin monosulfate (50 mg/l). The overnight cultures were diluted 10-fold to 100 ml into baffled shake-flasks having the same type of media and grown at 37° C. Gene expression was induced at mid-log phase (A_{600 nm}≅1) by the addition of β-indole acrylic acid to 25 mg/l. Cells were harvested 20 hours after induction, by centrifugation at approximately 6000 g for 10 min. Cells were resuspended in 1/20 of the culture volume in TST (50 mM Tris-HCl pH 8.0. 200 mM NaCl, 0.05% Tween 20, 1 mM EDTA), lysed by sonication and centrifuged at approximately 40,000 g. The samples for the sonication were prepared by sedimenting the shake-flask culture by centrifugation, and thereafter resuspending the cells in 30 ml of cold TST buffer. The samples were stored on ice during a 2 minute pulsed sonication which was performed on a Sonics and Materials Inc. (Danbury, Conn., USA) Vibra Cell (500 W) using a 13 mm standard horn tip, a 70% duty cycle (20 kHz) and with the output control set to 6.5. […] Eluted fractions were monitored for protein content by absorbance measurement at 280 nm and relevant fractions were lyophilised.

T1 sequence (P02768 25-609 limits assumed): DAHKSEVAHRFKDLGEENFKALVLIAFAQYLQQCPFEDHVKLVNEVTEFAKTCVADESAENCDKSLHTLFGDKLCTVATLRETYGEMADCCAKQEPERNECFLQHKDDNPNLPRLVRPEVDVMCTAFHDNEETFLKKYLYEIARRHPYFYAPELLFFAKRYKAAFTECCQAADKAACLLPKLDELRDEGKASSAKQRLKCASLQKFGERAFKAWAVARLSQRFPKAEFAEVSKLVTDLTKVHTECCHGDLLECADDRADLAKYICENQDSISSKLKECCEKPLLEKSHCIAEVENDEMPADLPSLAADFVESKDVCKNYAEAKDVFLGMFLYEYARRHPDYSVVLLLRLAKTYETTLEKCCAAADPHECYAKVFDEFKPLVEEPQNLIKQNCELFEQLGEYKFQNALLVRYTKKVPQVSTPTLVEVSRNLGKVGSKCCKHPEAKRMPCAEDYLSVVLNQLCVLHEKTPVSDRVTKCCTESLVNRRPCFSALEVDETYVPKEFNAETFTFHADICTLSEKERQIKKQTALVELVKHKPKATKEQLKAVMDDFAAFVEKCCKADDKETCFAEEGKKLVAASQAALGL

B1: Insulin C-peptide (from cleavage of fusion protein BB-C7) (peptide)
peptide: EAEDLQVGQVELGGGPGAGSLQPLALEGSLQ
In experiment [1], B1 gave an Assayed concentration of 2.34 nM and an Assayed concentration as percent of expected of 71%.

B2: BB-C7 fusion protein (other)
chain: MKAIFVLNAQHDEAVDANFDQFNKYGVSDYYKNLINNAKTVEGVKDLQAQVVESAKKARISEATDGLSDFLKSQTPAEDTVKSIELAEAKVLANRELDKYGVSDYHKNLINNAKTVEGVKDLQAQVVESAKKARISEATDGLSDFLKSQTPAEDTVKSIELAEAKVLANRELDKYGVSDYYKNLINNAKTVEGVKALIDEILAALPKTDTYKLILNGKTLKGETTTEAVDAATARSFNFPILENSSSVPASQAREAEDLQVGQVELGGGPGAGSLQPLALEGSLQRTASQAREAEDLQVGQVELGGGPGAGSLQPLALEGSLQRTASQAREAEDLQVGQVELGGGPGAGSLQPLALEGSLQRTASQAREAEDLQVGQVELGGGPGAGSLQPLALEGSLQRTASQAREAEDLQVGQVELGGGPGAGSLQPLALEGSLQRTASQAREAEDLQVGQVELGGGPGAGSLQPLALEGSLQRTASQAREAEDLQVGQVELGGGPGAGSLQPLALEGSLQRTASQAVD
notes: Expressed in E. coli from pTrpBB-C7; 54.2 kDa; also called peptide product comprising the fusion partner BB and seven copies of the insulin C-peptide
For B2, the binding result in experiment [2] is recorded as “binds”.

B3: BB-C3 fusion protein (other)
chain: MKAIFVLNAQHDEAVDANFDQFNKYGVSDYYKNLINNAKTVEGVKDLQAQVVESAKKARISEATDGLSDFLKSQTPAEDTVKSIELAEAKVLANRELDKYGVSDYHKNLINNAKTVEGVKDLQAQVVESAKKARISEATDGLSDFLKSQTPAEDTVKSIELAEAKVLANRELDKYGVSDYYKNLINNAKTVEGVKALIDEILAALPKTDTYKLILNGKTLKGETTTEAVDAATARSFNFPILENSSSVPASQAREAEDLQVGQVELGGGPGAGSLQPLALEGSLQRTASQAREAEDLQVGQVELGGGPGAGSLQPLALEGSLQRTASQAREAEDLQVGQVELGGGPGAGSLQPLALEGSLQRTASQAVD
notes: Expressed in E. coli from pTrpBB-C3; 39.1 kDa
As to B3, the binding result in experiment [2] was “binds”.
